{"source": "paper PMC7064771", "about": "“Repurposed Drugs That Block the Gonococcus-Complement Receptor 3 Interaction Can Prevent and Cure Gonococcal Infection of Primary Human Cervical Epithelial Cells” (mBio, 2020)", "key": {"[1]": {"target": "recombinant human CR3 I-domain (I-domain of CD11b) (human)", "experiment": "SPR"}, "[2]": {"target": "recombinant human complement receptor 3 (integrin αMβ2) (human) (UniProt P11215)", "experiment": "SPR"}}}
{"substance": "N. gonorrhoeae MS11 wild-type pilin (PilE) modified with the Gal(α1-3)diNAcBac disaccharide (from UniProt P02974 8-165) (natural protein)", "values": [{"measurement": "Kd", "setting": "[1]", "value": 349, "unit": "nM"}, {"measurement": "Kd", "setting": "[2]", "value": 907, "unit": "nM"}]}
